Measurements reported in article PMC3582507, “A Safeguard Mechanism Regulates Rho GTPases to Coordinate Cytokinesis with the Establishment of Cell Polarity” (PLoS Biology, 2013).

B1: GST-Cdc42 (natural protein)
chain: not shown
notes: Cdc42, Rho GTPase of budding yeast; source: E. coli BL21 (DE3), purified
B2: GST-Cdc42-D57Y (natural protein)
chain: not shown
notes: Cdc42, Rho GTPase of budding yeast, nucleotide-locked mutant D57Y; source: E. coli BL21 (DE3), purified
B3: GST-Cdc42-Q61L (natural protein)
chain: not shown
notes: Cdc42, Rho GTPase of budding yeast, nucleotide-locked mutant Q61L; source: E. coli BL21 (DE3), purified
B4: GST-Rho1 (natural protein, S. cerevisiae, UniProt P06780 1-209, looked up)
chain: MSQQVGNSIRRKLVIVGDGACGKTCLLIVFSKGQFPEVYVPTVFENYVADVEVDGRRVELALWDTAGQEDYDRLRPLSYPDSNVVLICFSIDLPDSLENVQEKWIAEVLHFCQGVPIILVGCKVDLRNDPQTIEQLRQEGQQPVTSQEGQSVADQIGATGYYECSAKTGYGVREVFEAATRASLMGKSKTNGKAKKNTTEKKKKKCVLL
notes: Rho1, Rho GTPase of budding yeast; source: E. coli BL21 (DE3), purified
B5: GST-Rho1-G19V (natural protein, S. cerevisiae, UniProt P06780 1-209, looked up)
chain: MSQQVGNSIRRKLVIVGDVACGKTCLLIVFSKGQFPEVYVPTVFENYVADVEVDGRRVELALWDTAGQEDYDRLRPLSYPDSNVVLICFSIDLPDSLENVQEKWIAEVLHFCQGVPIILVGCKVDLRNDPQTIEQLRQEGQQPVTSQEGQSVADQIGATGYYECSAKTGYGVREVFEAATRASLMGKSKTNGKAKKNTTEKKKKKCVLL
notes: Rho1, Rho GTPase of budding yeast, nucleotide-locked mutant G19V; source: E. coli BL21 (DE3), purified
B6: GST-Rho1-G22A (natural protein, S. cerevisiae, UniProt P06780 1-209, looked up)
chain: MSQQVGNSIRRKLVIVGDGACAKTCLLIVFSKGQFPEVYVPTVFENYVADVEVDGRRVELALWDTAGQEDYDRLRPLSYPDSNVVLICFSIDLPDSLENVQEKWIAEVLHFCQGVPIILVGCKVDLRNDPQTIEQLRQEGQQPVTSQEGQSVADQIGATGYYECSAKTGYGVREVFEAATRASLMGKSKTNGKAKKNTTEKKKKKCVLL
notes: Rho1, Rho GTPase of budding yeast, nucleotide-locked mutant G22A; source: E. coli BL21 (DE3), purified

What follows are binders tested against T1, 6His-Gps1-1-290 (S. cerevisiae, UniProt Q99299 1-290) (assay: pull-down; 6His-Gps1-1-290 bound to Ni-NTA agarose beads, incubated with GST or GST fusion proteins 1 h at 4°C in 50 mM Tris-HCl pH 7.4, 10% glycerol, 100 mM NaCl, 1 mM EDTA, 1 mM DTT, 0.5% NP-40; SDS-PAGE and Western blotting). Details: both partners purified.
T1 construct: Gps1, budding yeast, ORF YPL158C, amino acids 1-290; also called 6His-GPS1 (amino acids 1-290); source: E. coli BL21 (DE3), purified (Ni-NTA agarose)
T1 sequence (looked up): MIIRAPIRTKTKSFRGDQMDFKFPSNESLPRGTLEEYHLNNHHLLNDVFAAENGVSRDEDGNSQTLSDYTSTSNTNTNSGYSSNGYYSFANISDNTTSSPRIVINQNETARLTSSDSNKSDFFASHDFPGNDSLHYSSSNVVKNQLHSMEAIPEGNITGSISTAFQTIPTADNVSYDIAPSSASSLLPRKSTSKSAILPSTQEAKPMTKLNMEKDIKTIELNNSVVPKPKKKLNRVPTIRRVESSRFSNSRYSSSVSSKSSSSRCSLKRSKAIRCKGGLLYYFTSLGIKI

Question: Does B1 bind?
Answer: binds

Question: Does B2 bind?
Answer: binds

Question: Does B3 bind?
Answer: binds

Question: Does B4 bind?
Answer: binds

Question: Does B5 bind?
Answer: binds

Question: Does B6 bind?
Answer: binds
